The values that follow come from patent publication US20230340054A1.

In the test the target is IL-2 receptor on the cell surface (high and intermediate affinity receptors on human PBMC subsets). Briefly: cell-based or functional assay.
Consider IgG fusion IL-2 mutein D20N, for which the pSTAT5α levels in CD4+ cells turned out to be 2.23 and the pSTAT5α levels in CD8+ cells turned out to be 1.5.
Consider IgG fusion IL-2 mutein D20T, for which the pSTAT5α levels in CD4+ cells came to 1.46 and the pSTAT5α levels in CD8+ cells was 1.7.
Taken in the same sequence, the figures for IgG fusion IL-2 mutein D84E were 1.61 and 0.957.
Regarding IgG fusion IL-2 mutein D84S, the pSTAT5α levels in CD4+ cells stood at 1.2 and the pSTAT5α levels in CD8+ cells stood at 1.05.
On to IgG fusion IL-2 mutein D84T, for which the pSTAT5α levels in CD4+ cells came to 1.21 and the pSTAT5α levels in CD8+ cells worked out at 0.96.
IgG fusion IL-2 mutein D109H returned a pSTAT5α levels in CD4+ cells of 1.01 and a pSTAT5α levels in CD8+ cells of 1.1.
Taken in the same sequence, the figures for IgG fusion IL-2 mutein D109K were 1.77 and 1.32.
IgG fusion IL-2 mutein D109M displayed a pSTAT5α levels in CD4+ cells of 1.28 and a pSTAT5α levels in CD8+ cells of 0.906.
With IgG fusion IL-2 mutein D109R, the pSTAT5α levels in CD4+ cells worked out at 1.77 and the pSTAT5α levels in CD8+ cells came out at 1.27.
On to IgG fusion IL-2 mutein D109W, for which the pSTAT5α levels in CD4+ cells was determined as 1.53 and the pSTAT5α levels in CD8+ cells amounted to 1.05.
Substance IgG fusion IL-2 mutein E15D gave a pSTAT5α levels in CD4+ cells of 1.09 and a pSTAT5α levels in CD8+ cells of 1.01.
IgG fusion IL-2 mutein E15S: the pSTAT5α levels in CD4+ cells was 1.66 and the pSTAT5α levels in CD8+ cells worked out at 0.932.
IgG fusion IL-2 mutein E15T came in with a pSTAT5α levels in CD4+ cells of 3.06 and a pSTAT5α levels in CD8+ cells of 1.79.
Substance IgG fusion IL-2 mutein E61W displayed a pSTAT5α levels in CD4+ cells of 1.3 and a pSTAT5α levels in CD8+ cells of 1.18.
As for IgG fusion IL-2 mutein E68F, the pSTAT5α levels in CD4+ cells came out at 2.19 and the pSTAT5α levels in CD8+ cells came out at 0.946.
For IgG fusion IL-2 mutein E68L, the pSTAT5α levels in CD4+ cells worked out at 2.01 and the pSTAT5α levels in CD8+ cells is 1.16.
IgG fusion IL-2 mutein E68Q yielded a pSTAT5α levels in CD4+ cells of 2 and a pSTAT5α levels in CD8+ cells of 1.4.
In turn, IgG fusion IL-2 mutein E68R came in with a pSTAT5α levels in CD4+ cells of 2.36 and a pSTAT5α levels in CD8+ cells of 1.22.
For the substance IgG fusion IL-2 mutein E68W, the pSTAT5α levels in CD4+ cells amounted to 1.96 and the pSTAT5α levels in CD8+ cells came to 0.997.
Take IgG fusion IL-2 mutein E68Y: the pSTAT5α levels in CD4+ cells came out at 2.6 and the pSTAT5α levels in CD8+ cells is 1.28.
Regarding IgG fusion IL-2 mutein E95D, the pSTAT5α levels in CD4+ cells was 1.62 and the pSTAT5α levels in CD8+ cells came out at 1.02.
The corresponding values for IgG fusion IL-2 mutein E95N are 0.981 and 1.05.
The substance IgG fusion IL-2 mutein E95Q had a pSTAT5α levels in CD4+ cells of 1.56 and a pSTAT5α levels in CD8+ cells of 1.05.
Take IgG fusion IL-2 mutein E95S: the pSTAT5α levels in CD4+ cells is 1.47 and the pSTAT5α levels in CD8+ cells stood at 1.
As for IgG fusion IL-2 mutein E95T, the pSTAT5α levels in CD4+ cells is 1.64 and the pSTAT5α levels in CD8+ cells worked out at 1.02.
Consider IgG fusion IL-2 mutein E106W, for which the pSTAT5α levels in CD4+ cells stood at 1.02 and the pSTAT5α levels in CD8+ cells stood at 1.18.
The corresponding values for IgG fusion IL-2 mutein F42M are 1.98 and 1.18.
In the case of IgG fusion IL-2 mutein H16K, the pSTAT5α levels in CD4+ cells came out at 1.05 and the pSTAT5α levels in CD8+ cells stood at 1.09.
The substance IgG fusion IL-2 mutein H16R returned a pSTAT5α levels in CD4+ cells of 1.4 and a pSTAT5α levels in CD8+ cells of 1.63.
In turn, IgG fusion IL-2 mutein H16Y gave a pSTAT5α levels in CD4+ cells of 1.75 and a pSTAT5α levels in CD8+ cells of 1.21.
The substance IgG fusion IL-2 mutein I92F had a pSTAT5α levels in CD4+ cells of 1.77 and a pSTAT5α levels in CD8+ cells of 1.2.
As to IgG fusion IL-2 mutein I92V, the pSTAT5α levels in CD4+ cells was 0.981 and the pSTAT5α levels in CD8+ cells came out at 1.08.
The substance IgG fusion IL-2 mutein I92W came in with a pSTAT5α levels in CD4+ cells of 1.11 and a pSTAT5α levels in CD8+ cells of 0.986.
IgG fusion IL-2 mutein I92Y: the pSTAT5α levels in CD4+ cells stood at 1.94 and the pSTAT5α levels in CD8+ cells came out at 1.12.
The corresponding values for IgG fusion IL-2 mutein K35T are 2.39 and 1.19.
The corresponding values for IgG fusion IL-2 mutein K43W are 1.24 and 1.16.
Substance IgG fusion IL-2 mutein K48I returned a pSTAT5α levels in CD4+ cells of 0.944 and a pSTAT5α levels in CD8+ cells of 0.868.
The substance IgG fusion IL-2 mutein K48S came in with a pSTAT5α levels in CD4+ cells of 2.23 and a pSTAT5α levels in CD8+ cells of 1.16.
IgG fusion IL-2 mutein K48V: the pSTAT5α levels in CD4+ cells worked out at 1.12 and the pSTAT5α levels in CD8+ cells came out at 1.18.
As for IgG fusion IL-2 mutein L12I, the pSTAT5α levels in CD4+ cells came out at 2.35 and the pSTAT5α levels in CD8+ cells worked out at 1.59.
Take IgG fusion IL-2 mutein L12V: the pSTAT5α levels in CD4+ cells came out at 1.64 and the pSTAT5α levels in CD8+ cells amounted to 1.03.
On to IgG fusion IL-2 mutein L12Y, for which the pSTAT5α levels in CD4+ cells worked out at 1.3 and the pSTAT5α levels in CD8+ cells was 1.01.
As to IgG fusion IL-2 mutein L19F, the pSTAT5α levels in CD4+ cells turned out to be 1.49 and the pSTAT5α levels in CD8+ cells came to 1.06.
In the case of IgG fusion IL-2 mutein L19I, the pSTAT5α levels in CD4+ cells is 2.22 and the pSTAT5α levels in CD8+ cells stood at 1.04.
IgG fusion IL-2 mutein L19V displayed a pSTAT5α levels in CD4+ cells of 1.31 and a pSTAT5α levels in CD8+ cells of 0.953.
The substance IgG fusion IL-2 mutein L72F displayed a pSTAT5α levels in CD4+ cells of 1.65 and a pSTAT5α levels in CD8+ cells of 0.939.
Substance IgG fusion IL-2 mutein L72R registered a pSTAT5α levels in CD4+ cells of 1.6 and a pSTAT5α levels in CD8+ cells of 0.93.
Taken in the same sequence, the figures for IgG fusion IL-2 mutein M23I were 1.83 and 1.16.
The substance IgG fusion IL-2 mutein M23L came in with a pSTAT5α levels in CD4+ cells of 1.91 and a pSTAT5α levels in CD8+ cells of 1.05.
In the case of IgG fusion IL-2 mutein M104H, the pSTAT5α levels in CD4+ cells amounted to 1.01 and the pSTAT5α levels in CD8+ cells is 0.989.
IgG fusion IL-2 mutein M104I had a pSTAT5α levels in CD4+ cells of 1.25 and a pSTAT5α levels in CD8+ cells of 0.851.
On to IgG fusion IL-2 mutein N71W, for which the pSTAT5α levels in CD4+ cells is 1.58 and the pSTAT5α levels in CD8+ cells amounted to 1.02.
Regarding IgG fusion IL-2 mutein N88S, the pSTAT5α levels in CD4+ cells was 1.2 and the pSTAT5α levels in CD8+ cells amounted to 1.04.
On to IgG fusion IL-2 mutein P34F, for which the pSTAT5α levels in CD4+ cells came out at 2.85 and the pSTAT5α levels in CD8+ cells was 1.88.
IgG fusion IL-2 mutein P34W: the pSTAT5α levels in CD4+ cells is 1.89 and the pSTAT5α levels in CD8+ cells stood at 1.1.
On to IgG fusion IL-2 mutein P34Y, for which the pSTAT5α levels in CD4+ cells is 1.11 and the pSTAT5α levels in CD8+ cells was 1.29.
As to IgG fusion IL-2 mutein P65E, the pSTAT5α levels in CD4+ cells is 1.51 and the pSTAT5α levels in CD8+ cells was 1.05.
In the case of IgG fusion IL-2 mutein P65K, the pSTAT5α levels in CD4+ cells worked out at 1.59 and the pSTAT5α levels in CD8+ cells stood at 1.31.
IgG fusion IL-2 mutein P65N: the pSTAT5α levels in CD4+ cells worked out at 1.71 and the pSTAT5α levels in CD8+ cells worked out at 1.07.
Take IgG fusion IL-2 mutein P65Q: the pSTAT5α levels in CD4+ cells turned out to be 1.6 and the pSTAT5α levels in CD8+ cells amounted to 1.13.
Take IgG fusion IL-2 mutein P65R: the pSTAT5α levels in CD4+ cells was determined as 1.67 and the pSTAT5α levels in CD8+ cells was found to be 1.15.
Take IgG fusion IL-2 mutein S87E: the pSTAT5α levels in CD4+ cells stood at 1 and the pSTAT5α levels in CD8+ cells is 0.825.
As for IgG fusion IL-2 mutein S87T, the pSTAT5α levels in CD4+ cells came out at 2 and the pSTAT5α levels in CD8+ cells was found to be 1.07.
IgG fusion IL-2 mutein T111H came in with a pSTAT5α levels in CD4+ cells of 1.9 and a pSTAT5α levels in CD8+ cells of 1.14.
Taken in the same sequence, the figures for IgG fusion IL-2 mutein T111M were 1.74 and 1.23.
With IgG fusion IL-2 mutein T111N, the pSTAT5α levels in CD4+ cells stood at 1.64 and the pSTAT5α levels in CD8+ cells is 1.08.
Consider IgG fusion IL-2 mutein T111Q, for which the pSTAT5α levels in CD4+ cells stood at 2.1 and the pSTAT5α levels in CD8+ cells was 1.28.
Turning to IgG fusion IL-2 mutein T111S, the pSTAT5α levels in CD4+ cells came to 2.47 and the pSTAT5α levels in CD8+ cells was 1.24.
For IgG fusion IL-2 mutein T111W, the pSTAT5α levels in CD4+ cells was 1.58 and the pSTAT5α levels in CD8+ cells is 1.15.
